From PMC10111636

What was measured:
Details in all cases: glycan lost; control: Flag-LARP1-WT
[1] = cycloheximide chase, Western blot
[2] = cycloheximide chase, sh-circCLNS1A#1 vs sh-NC cells
[3] = Western blot, TMG with or without sh-circCLNS1A#1

## La-related protein 1 (LARP1): S672A
[1]
  degradation_or_half_life: decreases
[2]
  other: dependence of protein stability on circCLNS1A: abolishes
[3]
  other: dependence of protein level on circCLNS1A: abolishes
